In ChEMBL document CHEMBL2074463, “Characterization of the hepatic canalicular membrane transport of a model oligopeptide: ditekiren” (J Pharmacol Exp Ther, 1997):

System: CC[C@H](C)[C@H](NC(=O)[C@@H](C[C@H](O)[C@H](CC(C)C)NC(=O)[C@H](Cc1c[nH]cn1)N(C)C(=O)[C@H](Cc1ccccc1)NC(=O)[C@@H]1CCCN1C(=O)OC(C)(C)C)C(C)C)C(=O)NCc1ccccn1
Test: TP_TRANSPORTER: uptake, inhibited by Cyclosporine, Nicardipine, Daunomycin, Verapamil, Reserpine, Rhodamine 123 and Vinblastine in bile canalicular membrane vesicles
Format: functional, cell membranes
Conditions: Rattus norvegicus; Bile canalicular membrane vesicle

## Multidrug resistance protein 1a (Rattus norvegicus), Q6PSM0
  Km: 19.1 µM
